Assay results from the supplement of paper PMC7877785.
± gives the uncertainty stated by the source.

Experiment: self-splicing fitness, log relative to wild type (ln ratio); higher = more splicing; Tetrahymena group I intron in knt gene, E. coli kanamycin selection, DiMSum; sequences stand for … in CUCUCU…GGAGGGAAAAGUUAUCAGGCAUGCACCUGGUAGCUAGUCUUUAAACCAAUAGAUUGCAUCGGUUUAAAAGGCAAGACCGUCAAAUUGCGGGAAAGGGGUCAACAGCCGUUCAGUACCAAGUCUCAGGGGAAACUUUGAGAUGGCCUUGCAAAGGGUAUGGUAAUAAGCUGACGGACAUGGUCCUAACCACGCAGCCAAGUCCUAAGUCAACAGAUCUUCUGUUGAUAUGGAUGCAGUUCACAGACUAAAUGUCGGUCGGGGAAGAUGUAUUCUUCUCAUAAGAUAUAGUCGGACCUCUCCUUAAUGGGAGCUAGCGGAUGAAGUGAUGCAACACUGGAGCCGCUGGGAACUAAUUUGUAUGCGAAAGUAUAUUGAUUAGUUUUGGAGUACUCGUGGUCG
Method in brief: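 Colonies from six replicate transformations of E. coli BL21(DE3) were pooled and amplicon-sequenced on an Illumina HiSeq 2500. The library placed an intron with all eight P1ex-region nucleotides randomised inside the knt kanamycin-resistance gene on pET-22b(+), and cells grew overnight at 37°C or 30°C on LB agar with or without 25 μg/mL kanamycin (plus 100 μg/mL carbenicillin, 50 μM IPTG, 0.2% rhamnose). Fitness is the DiMSum error-weighted combination of wild-type-normalised replicate fold changes, kanamycin versus none.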

Sequence	self-splicing fitness (ln) (30 °C)	self-splicing fitness (ln) (37 °C)
UCUCAGCAAUAUUACGUCCG	-2.5 ± 0.28	-2.26 ± 0.41
UCUCAGCAAUAUUACGUCCU	-2.36 ± 0.14	-2.57 ± 0.24
UCUCAGCAAUAUUACGUGCC	-3.38 ± 0.26	-1.71 ± 0.23
UCUCAGCAAUAUUACGUUCU	-3.49 ± 0.16	-1.86 ± 0.17
UCUGAGCAAUAUUACGAGCC	-1.65 ± 0.22	
UCUGAGCAAUAUUACGCACG	-3.08 ± 0.33	
UCUGAGCAAUAUUACGCAGC	-2.75 ± 0.42	
UCUGAGCAAUAUUACGCCAC	-2.41 ± 0.49	
UCUGAGCAAUAUUACGCCUG	-3.02 ± 0.18	-2.18 ± 0.2
UCUGAGCAAUAUUACGCGAA		-1.8 ± 0.25
UCUGAGCAAUAUUACGCGAG	-3.09 ± 0.2	-2.28 ± 0.24
UCUGAGCAAUAUUACGCUGU	-2 ± 0.23	-1.07 ± 0.19
UCUGAGCAAUAUUACGGAAC	-4.04 ± 0.39	-3.05 ± 0.28
UCUGAGCAAUAUUACGGAAG	-4.27 ± 0.2	-3.07 ± 0.23
UCUGAGCAAUAUUACGGCAG	-1.8 ± 0.097	-0.992 ± 0.12
UCUGAGCAAUAUUACGGCGC	-3.06 ± 0.29	-2.02 ± 0.32
UCUGAGCAAUAUUACGGUCU	-2.46 ± 0.21	-2.96 ± 0.37
UCUGAGCAAUAUUACGGUGC	-4.39 ± 0.39	-2.45 ± 0.25
UCUGAGCAAUAUUACGUAAG	-0.697 ± 0.11	-0.863 ± 0.19
UCUGAGCAAUAUUACGUAUU	-4.55 ± 0.25	-3.08 ± 0.25
UCUGAGCAAUAUUACGUCGU	-3.79 ± 0.29	-1.91 ± 0.25

Sequence	self-splicing fitness (ln) (30 °C)	self-splicing fitness (ln) (37 °C)
UCUUAGCAAUAUUACGACAC	-2.77 ± 0.46	-1.65 ± 0.22
UCUUAGCAAUAUUACGACCA	-1.32 ± 0.48	
UCUUAGCAAUAUUACGACGC	-2.07 ± 0.28	-1.02 ± 0.23
UCUUAGCAAUAUUACGACUC		-1.03 ± 0.5
UCUUAGCAAUAUUACGCACG	-1.56 ± 0.29	-1.47 ± 0.34
UCUUAGCAAUAUUACGGCCA	-2.31 ± 0.38	
UCUUAGCAAUAUUACGGGGA	-1.1 ± 0.15	-1 ± 0.16
UCUUAGCAAUAUUACGGUGG	-1.18 ± 0.13	-1.2 ± 0.16
UCUUAGCAAUAUUACGUUCU		-2.75 ± 0.21
UGAAAGCAAUAUUACGAAAU	-3.67 ± 0.2	-1.95 ± 0.18
UGAAAGCAAUAUUACGACAG	-0.875 ± 0.1	-0.652 ± 0.13
UGAAAGCAAUAUUACGACAU	-1.26 ± 0.013	-0.435 ± 0.032
UGAAAGCAAUAUUACGAGAA	-2.32 ± 0.23	-1.22 ± 0.15
UGAAAGCAAUAUUACGAGGC	-3.66 ± 0.28	-2.36 ± 0.21
UGAAAGCAAUAUUACGAUAC	-2.87 ± 0.19	-2.8 ± 0.33
UGAAAGCAAUAUUACGAUGA	-0.217 ± 0.088	-0.415 ± 0.1
UGAAAGCAAUAUUACGAUGU	-3.04 ± 0.2	-1.81 ± 0.21
UGAAAGCAAUAUUACGAUUU	-1.08 ± 0.06	-0.463 ± 0.077
UGAAAGCAAUAUUACGCACG	-1.4 ± 0.11	0.111 ± 0.13
UGAAAGCAAUAUUACGCAGG	-2.65 ± 0.17	-1.42 ± 0.2
UGAAAGCAAUAUUACGCCCU	-0.195 ± 0.11	0.295 ± 0.15
